According to IntAct's records for PubMed 22842346:

B1: High mobility group protein B1 (Mus musculus), P63158 (parent)
chain: MGKGDPKKPRGKMSSYAFFVQTCREEHKKKHPDASVNFSEFSKKCSERWKTMSAKEKGKFEDMAKADKARYEREMKTYIPPKGETKKKFKDPNAPKRPPSAFFLFCSEYRPKIKGEHPGLSIGDVAKKLGEMWNNTAADDKQPYEKKAAKLKEKYEKDIAAYRAKGKPDAAKKGVVKAEKSKKKKEEEDDEEDEEDEEEEEEEEDEDEEEDDDDE

Variants of: B1
Details: with havr2_mouse Havcr2, Q8VIM0
Chain of havr2_mouse Havcr2, Q8VIM0 (Q8VIM0 whole entry): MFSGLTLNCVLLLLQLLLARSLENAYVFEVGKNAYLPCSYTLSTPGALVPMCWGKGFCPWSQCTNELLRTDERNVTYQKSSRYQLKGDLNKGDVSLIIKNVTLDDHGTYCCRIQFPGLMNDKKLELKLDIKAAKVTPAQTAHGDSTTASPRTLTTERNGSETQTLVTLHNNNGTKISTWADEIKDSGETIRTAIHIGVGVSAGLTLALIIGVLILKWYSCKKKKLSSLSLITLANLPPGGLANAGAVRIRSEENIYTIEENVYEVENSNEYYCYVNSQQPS

effect of a mutation on the interaction | Variant
decreasing interaction | MGKGDPKKPRGKMSSYAFFVQTCREEHKKKHPDASVNFSEFSKKCSERWKTMSAKEKGKFEAMAKADKARYEREMKTYIPPKGETKKKFKDPNAPKRPPSAFFLFCSEYRPKIKGEHPGLSIGDVAKKLGEMWNNTAADDKQPYEKKAAKLKEKYEKDIAAYRAKGKPDAAKKGVVKAEKSKKKKEEEDDEEDEEDEEEEEEEEDEDEEEDDDDE [D62A]
